For two molecules, binding result and EC50 results are on record in patent publication US20190359653A1 (Genentech, published 2019).

A word on the EC50: it is the concentration needed to bring the measured effect to its halfway point. Lower therefore signals a more potent agent.

Ends that are not written are not given here.

The target in assay [1] is T1, hsFRP2 (human, UniProt Q96HF1 25-295).
T1 construct: bought (R&D Systems); also called human sFRP2
T1 sequence (looked up): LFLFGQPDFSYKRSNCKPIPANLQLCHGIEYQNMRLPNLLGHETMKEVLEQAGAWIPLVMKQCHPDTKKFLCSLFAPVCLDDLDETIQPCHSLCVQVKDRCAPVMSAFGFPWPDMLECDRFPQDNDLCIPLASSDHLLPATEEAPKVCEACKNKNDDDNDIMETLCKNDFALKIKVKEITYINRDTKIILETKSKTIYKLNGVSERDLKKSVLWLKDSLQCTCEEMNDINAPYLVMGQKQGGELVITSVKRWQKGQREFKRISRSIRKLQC
The assay is described as follows: fluorescence size-exclusion chromatography (FSEC).

Assay [2] has as its target T2, hsFRP-5 (human, UniProt Q5T4F7 30-317).
T2 construct: bought (R&D Systems); also called human sFRP5
T2 sequence (looked up): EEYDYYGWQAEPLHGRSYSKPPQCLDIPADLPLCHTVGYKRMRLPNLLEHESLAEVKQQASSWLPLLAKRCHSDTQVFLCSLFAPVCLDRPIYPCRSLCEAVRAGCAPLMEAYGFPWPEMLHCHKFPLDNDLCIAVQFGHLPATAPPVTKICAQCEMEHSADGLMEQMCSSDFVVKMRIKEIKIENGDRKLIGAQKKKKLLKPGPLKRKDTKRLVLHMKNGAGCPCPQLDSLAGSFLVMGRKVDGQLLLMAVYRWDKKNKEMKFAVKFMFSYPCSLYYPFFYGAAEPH
The assay is described as follows: fluorescence size-exclusion chromatography (FSEC). (In general: SEC sorts molecules by how far they enter the pores of the column.)

Assay [3] addresses T3, hsFRP-3 (human, UniProt Q92765 33-325).
T3 construct: bought (R&D Systems); also called human sFRP3
T3 sequence (looked up): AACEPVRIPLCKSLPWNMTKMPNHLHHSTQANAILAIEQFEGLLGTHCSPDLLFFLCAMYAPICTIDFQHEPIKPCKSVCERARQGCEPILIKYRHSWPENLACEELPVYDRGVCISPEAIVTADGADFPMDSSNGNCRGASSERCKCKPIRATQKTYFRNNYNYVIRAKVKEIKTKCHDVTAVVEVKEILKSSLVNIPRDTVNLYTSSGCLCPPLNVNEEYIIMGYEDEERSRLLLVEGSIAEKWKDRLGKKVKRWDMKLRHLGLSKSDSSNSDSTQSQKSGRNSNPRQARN
The assay is described as follows: fluorescence size-exclusion chromatography (FSEC).

The target of assay [4] is T4, hsFRP1 (human, UniProt Q8N474 32-314).
T4 construct: bought (R&D Systems); also called human sFRP1
T4 sequence (looked up): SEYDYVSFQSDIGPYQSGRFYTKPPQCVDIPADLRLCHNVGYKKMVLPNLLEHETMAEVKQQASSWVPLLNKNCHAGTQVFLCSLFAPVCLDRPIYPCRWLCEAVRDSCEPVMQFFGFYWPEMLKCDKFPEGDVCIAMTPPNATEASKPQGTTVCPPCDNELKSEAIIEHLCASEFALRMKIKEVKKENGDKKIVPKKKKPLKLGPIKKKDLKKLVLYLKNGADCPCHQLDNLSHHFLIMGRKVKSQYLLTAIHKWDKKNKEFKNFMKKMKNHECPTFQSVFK
Kind of assay: fluorescence size-exclusion chromatography (FSEC).

The target in assay [5] is T5, hsFRP-4 (human, UniProt Q6FHJ7 22-346, limits assumed).
T5 construct: bought (R&D Systems); also called human sFRP4
T5 sequence (looked up): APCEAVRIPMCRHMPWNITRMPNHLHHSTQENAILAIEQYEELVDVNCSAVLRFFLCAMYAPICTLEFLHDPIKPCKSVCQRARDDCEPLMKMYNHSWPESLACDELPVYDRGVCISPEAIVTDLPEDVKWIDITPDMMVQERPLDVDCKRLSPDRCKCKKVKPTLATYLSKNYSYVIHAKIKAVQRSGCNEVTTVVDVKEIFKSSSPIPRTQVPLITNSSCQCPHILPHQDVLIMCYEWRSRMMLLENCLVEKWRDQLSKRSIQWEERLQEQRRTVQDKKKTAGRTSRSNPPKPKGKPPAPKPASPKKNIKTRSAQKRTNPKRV
Kind of assay: fluorescence size-exclusion chromatography (FSEC).

In assay [6] the target is T6, hFZD10 CRD-Fc (human, UniProt Q9ULW2 21-161, limits assumed).
T6 construct: domain: CRD; bought (R&D Systems); not shown: Fc part
T6 sequence (looked up): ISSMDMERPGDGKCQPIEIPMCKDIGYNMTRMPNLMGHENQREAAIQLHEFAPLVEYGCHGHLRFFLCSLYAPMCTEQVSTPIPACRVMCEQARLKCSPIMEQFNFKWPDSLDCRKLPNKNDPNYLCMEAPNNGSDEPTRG
Kind of assay: fluorescence titration, 50 nM labelled peptide vs FZD CRD-Fc dilutions (Monolith NT.115); NC = no change.

Assay [7] concerns the target T7, mFZD9 CRD-Fc (mouse, UniProt Q9R216 24-176, limits assumed).
T7 construct: domain: CRD; bought (R&D Systems); not shown: Fc part
T7 sequence (looked up): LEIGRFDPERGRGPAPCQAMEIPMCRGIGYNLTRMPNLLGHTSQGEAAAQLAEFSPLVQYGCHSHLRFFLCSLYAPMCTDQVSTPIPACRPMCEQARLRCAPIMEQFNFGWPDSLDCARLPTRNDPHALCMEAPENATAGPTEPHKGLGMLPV
Described as above.

The target of assay [8] is T8, hFZD5 CRD-Fc (human, UniProt Q13467 27-167, limits assumed).
T8 construct: domain: CRD; bought (R&D Systems); not shown: Fc part
T8 sequence (looked up): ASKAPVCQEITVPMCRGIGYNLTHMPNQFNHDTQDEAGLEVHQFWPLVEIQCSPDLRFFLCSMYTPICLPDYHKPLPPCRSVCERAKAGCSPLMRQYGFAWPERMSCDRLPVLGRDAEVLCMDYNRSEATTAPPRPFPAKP
The description is as above.

Assay [9] deals with T9, hFZD8 CRD-Fc (human, UniProt Q9H461 28-158, limits assumed).
T9 construct: domain: CRD; bought (R&D Systems); not shown: Fc part
T9 sequence (looked up): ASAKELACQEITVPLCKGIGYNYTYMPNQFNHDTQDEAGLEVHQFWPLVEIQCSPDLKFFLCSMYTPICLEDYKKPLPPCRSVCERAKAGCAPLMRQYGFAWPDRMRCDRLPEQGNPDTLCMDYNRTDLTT
The description is as above.

In assay [10] the target is T10, hFZD4 CRD-Fc (human, UniProt Q9ULV1 37-180, limits assumed).
T10 construct: domain: CRD; bought (R&D Systems); not shown: Fc part
T10 sequence (looked up): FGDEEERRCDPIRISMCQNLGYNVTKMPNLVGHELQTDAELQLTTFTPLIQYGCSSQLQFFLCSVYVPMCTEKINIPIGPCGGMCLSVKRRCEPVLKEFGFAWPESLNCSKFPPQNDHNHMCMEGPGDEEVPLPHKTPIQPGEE
The description is as above.

Assay [11] concerns the target T11, hFZD1 CRD-Fc (human, UniProt Q9UP38 70-250, limits assumed).
T11 construct: domain: CRD; bought (R&D Systems); not shown: Fc part
Kind of assay: fluorescence titration, 50 nM labelled peptide vs FZD CRD-Fc dilutions (Monolith NT.115).

Assay [12] concerns the target T12, hFZD7 CRD-Fc (human, UniProt O75084 33-185). Described as above.
In assay [13] the target is T13, mFZD2 CRD-Fc (mouse, UniProt Q9JIP6 29-178, limits assumed).
T13 construct: domain: CRD; bought (R&D Systems); not shown: Fc part
The assay is described as above.

Assay [14] addresses T14, mFZD7 CRD-Fc (mouse, UniProt Q61090 33-185). The description is as above.
Assay [15] has as its target T12, hFZD7 CRD-Fc. Kind of assay: fluorescence titration, 50 nM labelled peptide vs FZD CRD-Fc dilutions (Monolith NT.115); NC = no change.
The target in assay [16] is T13, mFZD2 CRD-Fc. Described as above.
The target in assay [17] is T14, mFZD7 CRD-Fc. The description is as above.

T11 sequence (Q9UP38 70-250 limits assumed): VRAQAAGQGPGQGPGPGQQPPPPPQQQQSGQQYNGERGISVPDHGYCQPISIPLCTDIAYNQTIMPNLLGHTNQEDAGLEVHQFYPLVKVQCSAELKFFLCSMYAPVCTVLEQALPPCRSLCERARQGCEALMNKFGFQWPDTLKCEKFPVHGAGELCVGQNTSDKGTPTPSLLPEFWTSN

B1: 5FAM-Fz7-21 (peptide)
peptide: LPSDDLEFWCHVMY-NH2
modifications: also: 5-carboxyfluorescein (5FAM) label, site not given here
notes: synthetic
With B1, the binding result in assay [1] is “no binding (tested: 10 µM peptide, ~250 nM sFRP)”; in assay [2], “no binding (tested: 10 µM peptide, ~250 nM sFRP)”; in assay [3] it was “no binding (tested: 10 µM peptide, ~250 nM sFRP)”; in assay [4], “no binding (tested: 10 µM peptide, ~250 nM sFRP)”; in [5], “no binding (tested: 10 µM peptide, ~250 nM sFRP)”; in [6] it was “no binding”. For the same molecule, the binding result in [7], in [8], in [9] and in assay [10] was “no binding” each time. Also, the EC50 in [11] amounted to 39 nM; in assay [12], 116 nM; in assay [13], 60 nM; in assay [14], 67 nM.

B2: 5FAM-Fz7-21S (peptide)
peptide: LPSDDLEFWSHVMY-NH2
modifications: also: 5-carboxyfluorescein (5FAM) label, site not given here
notes: synthetic control peptide (C10S)
For the molecule B2, the binding result is “no binding (tested: 10 µM peptide, ~250 nM sFRP)” in assay [1]; “no binding (tested: 10 µM peptide, ~250 nM sFRP)” in assay [2]; “no binding (tested: 10 µM peptide, ~250 nM sFRP)” in assay [3]; “no binding (tested: 10 µM peptide, ~250 nM sFRP)” in assay [4]; “no binding (tested: 10 µM peptide, ~250 nM sFRP)” in assay [5]; “no binding” in [6]. Also, the binding result in [15], in assay [16], in assay [17], in assay [7], in assay [8] and in [9] was “no binding” each time. The binding result in [10] was “no binding”.
